Values belong to the binder of their own block, whether it stands above or below them.
Legend:
cynomolgus 5T4 on cells = target: T1, cynomolgus 5T4 on cells (cynomolgus macaque, UniProt Q4R8Y9 35-420); experiment: flow cytometry, CHO-K1/cynomolgus 5T4 transfectants, labelled anti-human IgG secondary, MFI (mean)
T1 construct: whole, on cells; also called CHO-K1/cynomolgus 5T4 transfectants
T1 sequence (looked up): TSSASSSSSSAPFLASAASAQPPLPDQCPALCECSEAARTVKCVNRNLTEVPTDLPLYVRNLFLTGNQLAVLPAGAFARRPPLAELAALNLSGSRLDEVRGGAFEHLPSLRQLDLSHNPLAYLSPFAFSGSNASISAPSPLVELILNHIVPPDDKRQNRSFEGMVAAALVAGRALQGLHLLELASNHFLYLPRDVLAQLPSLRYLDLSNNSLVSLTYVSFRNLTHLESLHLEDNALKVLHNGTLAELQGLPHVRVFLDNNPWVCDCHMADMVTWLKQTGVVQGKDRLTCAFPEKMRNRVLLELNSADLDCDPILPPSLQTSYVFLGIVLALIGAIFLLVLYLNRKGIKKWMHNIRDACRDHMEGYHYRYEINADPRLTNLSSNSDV
Description: Binding studies were performed by standard flow cytometry-based staining procedures two cell lines expressing 5T4:CHO-K1 cells (obtained from Alligator) transduced with human or cynomolgus macaque 5T4 and SKOV-3 human ovarian adenocarcinoma cells which express (human) 5T4. All labeling and washes were performed in U-bottom 96-well plates in saline buffer with 0.1% BSA and 2 mM EDTA. Cell were plated at approximately 100,000 cells per well and incubated with a range of 100 nM to 0.05 nM concentrations of test molecules in […], for 30 minutes on ice. Cells were washed three times then incubated for another 30 min on ice with fluorescently-labeled secondary polyclonal antibody, F(ab′)² goat anti-human IgG (Jackson ImmunoResearch Laboratories). The cells were then washed twice and the samples acquired in a BD LSRII or a Symphony A3 flow cytometer. The sample files were analyzed using FlowJo software; the mean fluorescence intensity (MFI-mean) or median fluorescence intensity (MFI-median) of the live population of cells in each well was calculated after gating on live cells (forward vs side scatter). Nonlinear regression analysis to determine EC₅₀ values was performed in GraphPad Prism 6® graphing and statistics software.

human CD137 on cells [1] = target: T2, human CD137 on cells (human, UniProt Q07011 24-255); experiment: cell-based or functional assay
[2] = target: T3, recombinant human CD137 extracellular domain (ECD) (human); experiment: SPR (Biacore T200, 25 C), bispecific captured on anti-human IgG, monomeric ECD injected, 1:1 fit
T3 construct: Monomeric, made in HEK-293; also called Hu CD137; human 4-1BB ECD
Description: (§1) Goat anti-human IgG F(ab′)2 fragment (Jackson ImmunoResearch) at 20 μg/mL in 10 mM sodium acetate (pH 4.5) was immobilized at a density of 2000 response units (RU) onto the flow cell of a CM5 research-grade sensor chip (GE) by standard amine coupling chemistry. Each bispecific variant at 200 nM in HBS-EP+ buffer was captured in the flow cell with the immobilized anti-human IgG at a flow rate of 50 μL/min for 60 sec to reach ˜500 RU response, leaving one flow cell surface unmodified as the reference. Following a 30 sec stabilization period, four different concentrations of each ECD (0, 20, 60, and 180 nM) were injected at 50 μL/min for either 120 sec followed by a 240 sec dissociation period (for 5T4) or 90 sec followed by a 180 sec dissociation period (for 4-1BB). Regeneration was achieved by duplicate injections of 10 mM glycine (pH 1.5) at a flow rate of 50 μL/min for 30 sec followed by HBS-EP+ buffer stabilization for 1 min.
(§2) Sensorgrams obtained from kinetic SPR measurements were analyzed by the double subtraction method. The signal from the reference flow cell was subtracted from the analyte binding response obtained from flow cells with immobilized or captured ligands. Buffer reference responses were then averaged from multiple injections. The averaged buffer reference responses were then subtracted from analyte binding responses, and the final double-referenced data were analyzed with Biacore T200 Evaluation software (2.0, GE), globally fitting data to derive kinetic parameters. All sensorgrams were fitted using a simple one-to-one binding model.

[3] = target: T4, recombinant human 5T4 extracellular domain (ECD) (human); experiment: as above
T4 construct: Monomeric, made in HEK-293; also called Hu 5T4; monomeric 5T4 ectodomain
T4 chain: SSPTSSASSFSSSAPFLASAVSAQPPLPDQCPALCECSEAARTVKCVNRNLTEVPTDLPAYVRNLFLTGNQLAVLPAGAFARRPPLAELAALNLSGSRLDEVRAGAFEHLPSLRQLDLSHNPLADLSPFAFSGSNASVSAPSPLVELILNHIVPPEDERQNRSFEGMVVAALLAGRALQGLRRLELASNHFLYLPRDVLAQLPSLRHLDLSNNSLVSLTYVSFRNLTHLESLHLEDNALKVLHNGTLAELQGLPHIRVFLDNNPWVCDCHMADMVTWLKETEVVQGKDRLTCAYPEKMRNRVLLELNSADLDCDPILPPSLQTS
Description: as §1, §2

human CD137 on cells [4] = target: T2, human CD137 on cells; experiment: flow cytometry, CHO-K1/human CD137 cells, PE anti-human IgG Fc secondary, MFI (mean)
Description: Binding studies on CHO-K1 cells lines expressing CD137 were performed by standard flow cytometry-based staining procedures. CHO-K1 cells (generated by Alligator) were transfected with human or cynomolgus macaque CD137. A typical experiment would label approximately 100,000 cells per well, in 96-well plates, with a range of 100 nM to 0.05 nM binding molecule in 50 μL of saline buffer with 2% BSA and 2 mM EDTA, for 30 min on ice, followed by washes and incubation with PE-labeled secondary antibody, goat anti-human IgG Fcγ ([…]), for 20 minutes on ice. Signal from bound molecules was detected using a LSR-II™ or a Symphony A3 flow cytometer (BD Biosciences) and analyzed by FlowJo flow cytometry analysis software. […] Nonlinear regression analysis to determine EC₅₀ values was performed in GraphPad Prism 6® graphing and statistics software.

T2 sequence (Q07011 24-255 limits assumed): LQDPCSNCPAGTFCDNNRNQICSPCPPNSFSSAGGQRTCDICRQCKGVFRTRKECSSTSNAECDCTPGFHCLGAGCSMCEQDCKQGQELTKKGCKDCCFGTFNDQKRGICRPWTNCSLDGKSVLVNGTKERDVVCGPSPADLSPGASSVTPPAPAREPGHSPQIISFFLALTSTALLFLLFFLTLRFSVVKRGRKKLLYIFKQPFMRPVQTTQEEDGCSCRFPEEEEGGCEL
T3 sequence (chain, as listed by the source limits assumed): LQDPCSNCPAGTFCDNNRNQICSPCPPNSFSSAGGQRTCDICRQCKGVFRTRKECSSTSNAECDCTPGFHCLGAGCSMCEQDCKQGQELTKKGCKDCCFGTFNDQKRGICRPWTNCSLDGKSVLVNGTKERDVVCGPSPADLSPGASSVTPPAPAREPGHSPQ

EC50 (cynomolgus 5T4 on cells): 7.2 nM
Maximum MFI (cynomolgus 5T4 on cells): 23800
CD137 reporter assay with HCC1143 cells, EC50 against ALG.APV-004 (human CD137 on cells [1]): 10 fold lower EC50
Kd [2]: 59 nM
koff [2]: 0.033 s⁻¹
kon [2]: 550000 M⁻¹ s⁻¹
Kd [3]: 79 nM
koff [3]: 0.0012 s⁻¹
kon [3]: 15000 M⁻¹ s⁻¹
EC50 (human CD137 on cells [4]): 0.56 nM
Maximum MFI (human CD137 on cells [4]): 8970
B1: ALG.APV-210 (bispecific antibody)
chain: EVQLLESGGGLVQPGGSLRLSCAASGFTFSHGSMYWVRQAPGKGLEWVSSISSGSGSTYYADSVKGRFTISHDNSKNTLYLQMNSLRAEDTAVYYCARSSYYGSYYSIDYWGQGTLVTVSSGGGGSGGGGSGGGGSGGGGSDIQMTQSPSSLSASVGDRVTITCRASQSISSYLNWYQQKPGKAPKLLIYAASSLQSGVPSRFSGSGSGTDFTLTISSLQPEDFATYYCQQYYDNLPTFGQGTKLEIKEPKSSDKTHTCPPCPAPEAAGAPSVFLFPPKPKDTLMISRTPEVTCVVVDVSHEDPEVKFNWYVDGVEVHNAKTKPREEQYNSTYRVVSVLTVLHQDWLNGKEYKCAVSNKALPAPIEKTISKAKGQPREPQVYTLPPSRDELTKNQVSLTCLVKGFYPSDIAVEWESNGQPENNYKTTPPVLDSDGSFFLYSKLTVDKSRWQQGNVFSCSVMHEALHNHYTQKSLSLSPGSGGGGSGGGGSGGGGSPSEVQLLESGGGLVQPGGSLRLSCAASGFTFSSYAMSWVRQAPGKCLEWVSAISGSGGSTYYADSVKGRFTISRDNSKNTLYLQMNSLRAEDTAVYYCARYYGGYYSAWMDYWGQGTLVTVSSGGGGSGGGGSGGGGSGGGGSDIQMTQSPSSLSASVGDRVTITCRASQSISSFLNWYQQKPGKAPKLLIYAASSLQSGVPSRFSGSGSGTDFTLTISSLQPEDSATYYCQQTYGYLHTFGCGTKLEIKR
notes: Optimized ADAPTIR scFv-Fc-scFv homodimer with stabilizing disulfide in the 1210 scFv; also called 5T4-CD137 bispecific antibody

EC50 (cynomolgus 5T4 on cells): 8.5 nM
Maximum MFI (cynomolgus 5T4 on cells): 26000
CD137 reporter assay with HCC1143 cells, EC50 against ALG.APV-004 (human CD137 on cells [1]): 10 fold lower EC50
CD137 reporter assay with HCC1143 cells, EC50 against ALG.APV-006 and ALG.APV-004 (human CD137 on cells [1]): ≤ 6 fold lower EC50
Kd [2]: 73 nM
koff [2]: 0.027 s⁻¹
kon [2]: 370000 M⁻¹ s⁻¹
Kd [3]: 35 nM
koff [3]: 0.00072 s⁻¹
kon [3]: 21000 M⁻¹ s⁻¹
EC50 (human CD137 on cells [4]): 0.41 nM
Maximum MFI (human CD137 on cells [4]): 8720
B2: ALG.APV-187 (bispecific antibody)
chain: EVQLLESGGGLVQPGGSLRLSCAASGFTFSHGSMYWVRQAPGKGLEWVSSISSGSGSTYYADSVKGRFTISHDNSKNTLYLQMNSLRAEDTAVYYCARSSYYGSYYSIDYWGQGTLVTVSSGGGGSGGGGSGGGGSGGGGSDIQMTQSPSSLSASVGDRVTITCRASQSISSYLNWYQQKPGKAPKLLIYAASSLQSGVPSRFSGSGSGTDFTLTISSLQPEDFATYYCQQYYDNLPTFGQGTKLEIKSSEPKSSDKTHTCPPCPAPEAAGAPSVFLFPPKPKDTLMISRTPEVTCVVVDVSHEDPEVKFNWYVDGVEVHNAKTKPREEQYNSTYRVVSVLTVLHQDWLNGKEYKCAVSNKALPAPIEKTISKAKGQPREPQVYTLPPSRDELTKNQVSLTCLVKGFYPSDIAVEWESNGQPENNYKTTPPVLDSDGSFFLYSKLTVDKSRWQQGNVFSCSVMHEALHNHYTQKSLSLSPGSGGGGSGGGGSGGGGSPSEVQLLESGGGLVQPGGSLRLSCAASGFTFSSYAMSWVRQAPGKCLEWVSAISGSGGSTYYADSVKGRFTISRDNSKNTLYLQMNSLRAEDTAVYYCARYYGGYYSAWMDYWGQGTLVTVSSGGGGSGGGGSGGGGSGGGGSDIQMTQSPSSLSASVGDRVTITCRASQSISSFLNWYQQKPGKAPKLLIYAASSLQSGVPSRFSGSGSGTDFTLTISSLQPEDSATYYCQQTYGYLHTFGCGTKLEIKR
notes: Optimized ADAPTIR scFv-Fc-scFv homodimer with stabilizing disulfide in the 1210 scFv

Source: US20190016816A1 (APTEVO RESEARCH AND DEVELOPMENT, published 2019)
